{"source": "patent US7666582B2", "about": "“IdeS, an IgG-degrading enzyme of Streptococcus pyogenes” (Hansa Medical Research AB, priority 2001, dated 2010)", "molecules": {"B1": {"name": "IdeS: new extracellular cysteine protease produced by S. pyogenes, highly specific for IgG; SEQ ID NO: 1 (protein)", "chain": "DSFSANQEIRYSEVTPYHVTSVWTKGVTPPANFTQGEDVFHAPYVANQGWYDITKTFNGKDDLLCGAATAGNMLHWWFDQNKDQIKRYLEEHPEKQKINFNGEQMFDVKEAIDTKNHQLDSKLFEYFKEKAFPYLSTKHLGVFPDHVIDMFINGYRLSLTNHGPTPVKEGSKDPRGGIFDAVFTRGDQSKLLTSRHDFKEKNLKEISDLIKKELTEGKALGLSHTYANVRINHVINLWGADFDSNGNLKAIYVTDSDSNASIGMKKYFVGVNSAGKVAISAKEIKEDNIGAQVLGLFTLSTGQDSWNQTN", "modifications": "S. Pyogenes"}}, "key": {"[1]": {"molecular_target": "T1, cystatin D (Homo sapiens, UniProt P28325)", "T1 sequence (P28325 21-142)": "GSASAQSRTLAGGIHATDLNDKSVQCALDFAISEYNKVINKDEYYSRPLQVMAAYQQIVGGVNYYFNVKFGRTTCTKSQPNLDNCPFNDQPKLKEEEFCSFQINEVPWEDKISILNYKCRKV", "test": "IdeS cleavage of other human proteins: cystatin D", "format": "biochemical"}, "[2]": {"test_system": "murine IgG", "test": "IdeS species restrictions: murine IgG", "format": "biochemical"}, "[3]": {"molecular_target": "T2, H-kininogen (Homo sapiens, UniProt P01042)", "T2 sequence (P01042 19-644)": "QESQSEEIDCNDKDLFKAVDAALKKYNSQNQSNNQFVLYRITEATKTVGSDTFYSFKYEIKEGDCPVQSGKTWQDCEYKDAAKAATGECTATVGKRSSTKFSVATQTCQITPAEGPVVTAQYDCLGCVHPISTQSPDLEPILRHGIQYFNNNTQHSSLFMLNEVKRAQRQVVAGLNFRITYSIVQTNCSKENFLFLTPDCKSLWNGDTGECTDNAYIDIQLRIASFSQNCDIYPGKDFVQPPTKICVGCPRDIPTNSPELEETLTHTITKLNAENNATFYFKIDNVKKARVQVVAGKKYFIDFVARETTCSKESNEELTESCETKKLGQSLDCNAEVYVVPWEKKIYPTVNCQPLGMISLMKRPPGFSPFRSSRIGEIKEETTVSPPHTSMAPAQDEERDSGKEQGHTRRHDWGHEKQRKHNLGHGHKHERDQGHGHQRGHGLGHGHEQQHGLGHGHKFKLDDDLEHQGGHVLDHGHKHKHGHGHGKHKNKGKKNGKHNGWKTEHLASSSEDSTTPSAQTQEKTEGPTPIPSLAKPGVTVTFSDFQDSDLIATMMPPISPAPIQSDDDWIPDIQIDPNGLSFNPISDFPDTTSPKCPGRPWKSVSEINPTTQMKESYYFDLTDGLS", "test": "IdeS cleavage of other human proteins: H-kininogen", "format": "biochemical"}, "[4]": {"test_system": "rabbit IgG", "test": "IdeS species restrictions: rabbit IgG", "format": "biochemical"}, "[5]": {"test_system": "human IgA", "test": "IdeS cleavage assay of Ig classes: IgA", "format": "biochemical", "conditions": "purified IdeS, 2 h at 37° C.", "description": "(§1) For standard IdeS activity assays, bacteria cultures were grown to OD620=0.4. Bacteria were pelleted by centrifugation and supernatants were sterile-filtered through a 0.22 μm membrane (Millipore) prior to use. For activity assays, […] of supernatant were mixed with 5 μl of IgG (10 mg/ml, Sigma) and the volume was adjusted with PBS to 100 μl. For screening of IdeS activity in different S. progenes strains, E64 was added to a final concentration of 40 μM. The mixtures were incubated at 37° C. for 30 min and samples were analyzed by 12% SDS-PAGE. For cleavage assays of different classes of Ig, purified IdeS (0.3 μg/ml) was incubated with 3 μg Ig for 2 h at 37° C., and analyzed by 12% SDS-PAGE analysis."}, "[6]": {"molecular_target": "T3, cystatin C (Homo sapiens, UniProt P01034)", "T3 sequence (P01034 27-146)": "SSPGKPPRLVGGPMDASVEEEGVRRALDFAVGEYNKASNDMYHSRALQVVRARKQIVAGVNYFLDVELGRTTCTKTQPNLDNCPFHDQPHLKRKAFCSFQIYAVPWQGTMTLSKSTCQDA", "test": "IdeS cleavage of other human proteins: cystatin C", "format": "biochemical"}, "[7]": {"molecular_target": "fibronectin (Homo sapiens, UniProt P02751)", "sequence (P02751 32-2477)": "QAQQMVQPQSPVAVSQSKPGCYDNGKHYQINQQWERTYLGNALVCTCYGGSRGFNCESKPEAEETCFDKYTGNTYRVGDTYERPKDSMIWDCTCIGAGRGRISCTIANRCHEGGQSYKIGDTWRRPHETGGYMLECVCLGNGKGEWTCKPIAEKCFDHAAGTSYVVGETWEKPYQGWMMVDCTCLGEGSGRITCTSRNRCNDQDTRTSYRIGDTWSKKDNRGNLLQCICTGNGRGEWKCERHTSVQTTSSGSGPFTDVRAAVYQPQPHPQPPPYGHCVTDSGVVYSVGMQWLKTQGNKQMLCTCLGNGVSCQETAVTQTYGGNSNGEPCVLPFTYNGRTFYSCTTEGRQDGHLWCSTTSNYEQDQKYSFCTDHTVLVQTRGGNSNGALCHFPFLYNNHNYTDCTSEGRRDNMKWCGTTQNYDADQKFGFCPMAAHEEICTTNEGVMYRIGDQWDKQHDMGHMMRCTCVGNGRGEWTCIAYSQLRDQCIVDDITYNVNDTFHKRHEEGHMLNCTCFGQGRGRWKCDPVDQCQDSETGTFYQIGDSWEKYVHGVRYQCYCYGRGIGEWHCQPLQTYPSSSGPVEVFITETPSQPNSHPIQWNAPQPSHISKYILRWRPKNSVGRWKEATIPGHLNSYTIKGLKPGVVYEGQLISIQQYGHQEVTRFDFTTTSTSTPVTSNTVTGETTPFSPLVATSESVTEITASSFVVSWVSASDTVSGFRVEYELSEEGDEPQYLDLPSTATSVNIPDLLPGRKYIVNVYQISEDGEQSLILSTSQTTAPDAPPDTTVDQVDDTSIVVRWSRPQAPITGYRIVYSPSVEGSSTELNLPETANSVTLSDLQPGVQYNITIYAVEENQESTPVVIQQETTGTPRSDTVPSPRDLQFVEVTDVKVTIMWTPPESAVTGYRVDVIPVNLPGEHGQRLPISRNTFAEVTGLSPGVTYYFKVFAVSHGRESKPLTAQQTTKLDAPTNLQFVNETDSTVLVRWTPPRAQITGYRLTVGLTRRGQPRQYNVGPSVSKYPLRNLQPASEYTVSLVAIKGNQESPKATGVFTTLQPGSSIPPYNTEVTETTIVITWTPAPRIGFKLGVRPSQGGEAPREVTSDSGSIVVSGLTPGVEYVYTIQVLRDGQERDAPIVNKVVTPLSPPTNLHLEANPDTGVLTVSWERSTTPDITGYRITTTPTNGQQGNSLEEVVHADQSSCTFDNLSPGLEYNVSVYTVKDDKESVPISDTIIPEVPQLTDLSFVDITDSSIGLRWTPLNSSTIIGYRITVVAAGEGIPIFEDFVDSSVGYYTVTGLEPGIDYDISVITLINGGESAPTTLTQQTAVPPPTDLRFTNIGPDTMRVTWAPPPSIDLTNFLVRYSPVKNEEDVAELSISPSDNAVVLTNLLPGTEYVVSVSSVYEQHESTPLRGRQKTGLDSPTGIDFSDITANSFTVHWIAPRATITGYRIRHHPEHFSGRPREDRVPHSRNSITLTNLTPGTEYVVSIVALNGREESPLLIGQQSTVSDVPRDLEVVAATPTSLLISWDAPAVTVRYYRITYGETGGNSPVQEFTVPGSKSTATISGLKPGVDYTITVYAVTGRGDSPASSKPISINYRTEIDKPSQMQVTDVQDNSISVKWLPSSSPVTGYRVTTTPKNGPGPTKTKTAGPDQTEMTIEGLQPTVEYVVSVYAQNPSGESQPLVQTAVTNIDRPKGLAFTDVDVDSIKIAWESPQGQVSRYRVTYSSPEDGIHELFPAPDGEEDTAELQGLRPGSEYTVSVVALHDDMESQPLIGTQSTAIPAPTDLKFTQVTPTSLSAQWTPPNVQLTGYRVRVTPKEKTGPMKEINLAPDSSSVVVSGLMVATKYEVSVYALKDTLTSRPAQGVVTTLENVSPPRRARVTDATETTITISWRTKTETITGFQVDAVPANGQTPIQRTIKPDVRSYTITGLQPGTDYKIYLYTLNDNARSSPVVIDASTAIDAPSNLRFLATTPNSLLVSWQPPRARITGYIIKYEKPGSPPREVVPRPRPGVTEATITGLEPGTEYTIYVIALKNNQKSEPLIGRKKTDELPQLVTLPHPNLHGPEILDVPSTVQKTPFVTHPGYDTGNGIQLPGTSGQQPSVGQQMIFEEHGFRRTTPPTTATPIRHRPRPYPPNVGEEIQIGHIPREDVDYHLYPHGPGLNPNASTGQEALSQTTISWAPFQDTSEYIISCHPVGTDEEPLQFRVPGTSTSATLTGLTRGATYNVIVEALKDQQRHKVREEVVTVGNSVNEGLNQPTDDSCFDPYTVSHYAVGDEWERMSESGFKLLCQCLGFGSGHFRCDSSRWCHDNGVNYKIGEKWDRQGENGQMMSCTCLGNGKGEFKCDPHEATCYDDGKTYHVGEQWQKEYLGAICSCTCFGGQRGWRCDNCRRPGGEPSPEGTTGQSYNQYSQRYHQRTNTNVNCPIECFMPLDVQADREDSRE", "test": "IdeS cleavage of other human proteins: fibronectin", "format": "biochemical"}, "[8]": {"test_system": "human IgD", "test": "IdeS cleavage assay of Ig classes: IgD", "format": "biochemical", "conditions": "purified IdeS, 2 h at 37° C.", "description": "as §1"}, "[9]": {"test_system": "Fc-fragment generated by papain cleavage, including 12 amino acids of the hinge region", "test": "IdeS cleavage of papain-generated Fc-fragment", "format": "biochemical, human"}}}
{"molecule": "B1", "values": [{"measurement": "cleavage products, cystatin D", "setting": "[1]", "value": "No cleavage products could be detected"}, {"measurement": "cleavage of murine IgG", "setting": "[2]", "value": "not murine IgG"}, {"measurement": "cleavage products, H-kininogen", "setting": "[3]", "value": "No cleavage products could be detected"}, {"measurement": "cleavage of rabbit IgG", "setting": "[4]", "value": "cleave"}, {"measurement": "degradation of human IgA", "setting": "[5]", "value": "only IgG was degraded"}, {"measurement": "cleavage products, cystatin C", "setting": "[6]", "value": "No cleavage products could be detected"}, {"measurement": "cleavage products, fibronectin", "setting": "[7]", "value": "No cleavage products could be detected"}, {"measurement": "degradation of human IgD", "setting": "[8]", "value": "only IgG was degraded"}, {"measurement": "cleavage of papain-generated Fc-fragment", "setting": "[9]", "value": "is cleaved"}]}
